Reference: the RNAGym collection of RNA variant scans (doi:10.1073/pnas.2313332121)

B1: TPR t1 (parent)
chain: GACCAAUCUGCCCUCAGAGCUCGAGAACAUCUUCGGAUGCAGAGGAGGCAGGCUUCGGUGGCGCGAUAGCGCCAACGUCCUCAACCUCCAAUGCAUCCCACCACAUGAUGAUGCCUGAAGAGCCUUGGUUUUUUG

Variants of: B1
Experiment: polymerase ribozyme fitness, log enrichment relative to wild type (log ratio); higher = more active; in vitro selection for triplet polymerase activity
Summary of the method: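 Mutant libraries for each subunit of a heterodimeric triplet polymerase ribozyme were made by PCR and then transcribed. Each library underwent one round of in vitro selection in triplicate: annealing with a biotinylated primer, the partner subunit and triplets, frozen incubation at −7 °C, gel excision of extended constructs, streptavidin-bead capture and RT-PCR. Input and output libraries were Illumina-sequenced, and only genotypes with ≥10 input reads and ≥1 read per output were kept. Fitness is the logarithm, base 2, of genotype enrichment over wild-type enrichment, computed from inverse-variance-weighted replicate averages.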

Variant | polymerase ribozyme fitness (log ratio)
C4A G36C G42C C49A C124U | -4.12
A5U A18G C20G C82U C94U A111C U112G A121C | -6.26
A5U G63C C85A C101A A118U | -2.94
C28U C124A | 0.0271
U7A U92A G120A U133A | -0.782
A6U C12G C72U U78C | -0.414
G60U C123A | 0.751
A6C A41U A43G G57U U130G | -3.78
C13G C15A | -2.5
U7G G10U C15A C56A G63C C64A C114A A121U C123G | -6.92
C70U C99U | -3.35
C31G A41U U55G G61U C86U G93C C102U G113C | -6.73
G48A G128U | -2.69
A100C U133G | -1.12
C56U C86G C104U | -0.849
A46C C72A U112C C124U | 1.22
C70A C89G | -3.96
C20A U87G A100G C102A A119G | -5.22
C64A C80G A103C U109G A118U | -5.65
U14G G47C C85G G117A | -5.3
C13A U81A | -3.27

Variant | polymerase ribozyme fitness (log ratio)
A5U C53U C64U U106A | -0.639
G17A G42U U129A | -4.5
G58U C73A | -0.295
A6U C12A G61U | 0.0933
A5C A6U A50U C56U A121U | 1.17
C13G C79A G113A | -3.53
G10A C85U | -0.189
U59G C88G | -2.09
A26C U54G C70A U109G | -5.98
U87G A103C U106C C124G | -1.08
C13U C70G A83C U112C | -1.45
G57C G61U U96G | -1.85
G69U C115A | 1
C62A A90C U112A | -2.63
U9A C64U A66G | -3.02
C8U U87C C102U U112A G122A | -0.31
A75G C85U U130C | -0.982
C8G A46G G107A | -4.69
C11A G60A U112A A118U | 0.704
C62A A90G | -0.841
C56G G61C A95G A111U | -6.34

Variant | polymerase ribozyme fitness (log ratio)
C72A U132A | -0.00723
A6G A41C G57U G60A A100U | -2.82
A5C C8U C34A A75U C79U C101G | -3.24
C70G U106C | -2.51
C8G C82A G117U | 0.587
A29U G61U U106G | -1.91
C13U A18U G42C U87A C124U | 0.0751
U33G G61A A121U G127U U133A | -3.67
C28A C70U | -4.86
C11A C40A C49G C94U | -3.79
C11G A37C C88G | -1.94
C8G G44U | -0.116
C80U C101U A121C | 1.19
A26U A43U A121U | -4.81
G60A U81G U109A C124A | -7.74
C22U G61A | -3.53
U9G G48U U87G C115G | 0.077
C49U G51U G71A C86U | -7.37
C31G A50C U109G U131A | -4.54
C11G C56U C76G U106A A119U | -1.85
G63A U129G | -0.825

Variant | polymerase ribozyme fitness (log ratio)
C8G A37G G71A | 0.737
U7C C31A A119G U133A | -6.12
G10U C73U U92A C101U C104U | -3.23
C20A C82A U87G | -1.92
G44U G63U | -2.03
G10U C13G G45U C56A U87A C94U C124G | -0.526
A18G G35A G69A G117A | -5.21
C12G G51A | -2.1
U7C G39A | -0.619
G10A A16U A66C C88A U92C G120U | -3.94
A6C U21A A37G A90G G120U G127U | -0.919
C34A G71A U78C C94U U125A | -5.82
A46C C72G | -2.19
C13G A37G | -2.1
U14C G36U A41U | -5.76
G69C C98U | -1.79
A27U C72U | -3.48
C20U C124U | -0.364
G39U C97A | -5.98
G63U A83U C101G | -2.97
U116A U129A | -4.24
